According to PMC11507941 (bioRxiv, 2024):
Where two headings read alike, the source gives them in different places.

Key:
Test in all cases: fluorescence polarisation
R359A SufS [1] = biological target: T1, R359A SufS (E. coli, UniProt P77444 1-406, R359A, PLP cofactor (occupancy greater than 90%))
T1 sequence: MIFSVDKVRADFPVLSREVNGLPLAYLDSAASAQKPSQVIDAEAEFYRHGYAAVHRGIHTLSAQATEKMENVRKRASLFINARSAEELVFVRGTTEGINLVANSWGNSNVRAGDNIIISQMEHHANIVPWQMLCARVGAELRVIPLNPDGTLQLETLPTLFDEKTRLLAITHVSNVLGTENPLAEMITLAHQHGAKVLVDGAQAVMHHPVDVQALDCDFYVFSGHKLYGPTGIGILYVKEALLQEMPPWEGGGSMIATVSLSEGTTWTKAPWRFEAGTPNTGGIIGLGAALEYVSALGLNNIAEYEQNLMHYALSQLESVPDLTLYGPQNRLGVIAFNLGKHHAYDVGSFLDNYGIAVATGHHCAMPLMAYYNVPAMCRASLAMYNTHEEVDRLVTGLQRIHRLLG

WT SufS [2] = biological target: T2, WT SufS (E. coli, UniProt P77444 1-406, PLP cofactor attached to K226 as an internal aldimine)
T2 sequence: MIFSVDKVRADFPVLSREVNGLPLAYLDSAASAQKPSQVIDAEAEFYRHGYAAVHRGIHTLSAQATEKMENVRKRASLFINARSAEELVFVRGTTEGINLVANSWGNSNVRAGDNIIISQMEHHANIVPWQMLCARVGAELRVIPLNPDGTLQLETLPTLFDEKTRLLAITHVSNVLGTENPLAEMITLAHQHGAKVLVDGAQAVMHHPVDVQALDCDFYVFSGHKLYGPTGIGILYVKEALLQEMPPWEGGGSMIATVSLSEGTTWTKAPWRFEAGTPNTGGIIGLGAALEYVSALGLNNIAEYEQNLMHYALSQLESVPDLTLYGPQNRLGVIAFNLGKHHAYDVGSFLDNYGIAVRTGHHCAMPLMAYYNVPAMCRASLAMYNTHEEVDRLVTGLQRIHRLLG

R56A SufS [3] = biological target: T3, R56A SufS (E. coli, UniProt P77444 1-406, R56A, PLP cofactor (occupancy greater than 90%))
T3 sequence: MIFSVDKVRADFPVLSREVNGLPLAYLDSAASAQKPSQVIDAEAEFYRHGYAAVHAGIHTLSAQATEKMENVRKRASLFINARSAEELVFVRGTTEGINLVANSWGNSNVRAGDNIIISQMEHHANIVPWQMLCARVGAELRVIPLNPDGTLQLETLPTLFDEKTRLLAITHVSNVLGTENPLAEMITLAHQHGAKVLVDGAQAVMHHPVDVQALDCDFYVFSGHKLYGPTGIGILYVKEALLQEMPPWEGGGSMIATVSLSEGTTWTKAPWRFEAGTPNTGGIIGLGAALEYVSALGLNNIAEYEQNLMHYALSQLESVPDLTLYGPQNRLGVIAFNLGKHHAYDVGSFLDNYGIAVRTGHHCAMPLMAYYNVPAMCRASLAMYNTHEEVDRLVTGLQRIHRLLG

R359K SufS [4] = biological target: T4, R359K SufS (E. coli, UniProt P77444 1-406, R359K, PLP cofactor (occupancy greater than 90%))
T4 sequence: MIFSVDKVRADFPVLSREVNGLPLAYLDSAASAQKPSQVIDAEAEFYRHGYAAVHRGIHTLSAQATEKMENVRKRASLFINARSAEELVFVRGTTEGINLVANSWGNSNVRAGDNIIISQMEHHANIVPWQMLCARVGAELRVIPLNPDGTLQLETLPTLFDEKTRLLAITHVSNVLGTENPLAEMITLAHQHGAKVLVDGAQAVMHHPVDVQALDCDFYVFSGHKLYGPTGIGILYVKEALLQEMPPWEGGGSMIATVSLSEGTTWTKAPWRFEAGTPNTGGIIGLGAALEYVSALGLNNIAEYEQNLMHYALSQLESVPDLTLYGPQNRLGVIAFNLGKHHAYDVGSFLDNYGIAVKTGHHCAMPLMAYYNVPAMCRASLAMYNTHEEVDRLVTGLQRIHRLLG

R56K SufS [5] = biological target: T5, R56K SufS (E. coli, UniProt P77444 1-406, R56K, PLP cofactor (occupancy greater than 90%))
T5 sequence: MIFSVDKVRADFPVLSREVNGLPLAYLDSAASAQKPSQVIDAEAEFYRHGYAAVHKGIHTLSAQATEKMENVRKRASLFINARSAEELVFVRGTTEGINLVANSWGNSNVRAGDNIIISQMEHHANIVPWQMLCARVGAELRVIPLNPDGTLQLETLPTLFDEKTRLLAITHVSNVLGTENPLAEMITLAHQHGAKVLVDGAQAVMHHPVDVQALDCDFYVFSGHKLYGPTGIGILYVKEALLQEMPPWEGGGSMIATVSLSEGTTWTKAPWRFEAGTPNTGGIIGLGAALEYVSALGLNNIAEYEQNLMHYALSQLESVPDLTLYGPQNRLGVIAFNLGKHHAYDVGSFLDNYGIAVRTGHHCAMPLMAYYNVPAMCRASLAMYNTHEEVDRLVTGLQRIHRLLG

R359A SufS [6] = biological target: T1, R359A SufS; remark: listed apart in the source
WT SufS [7] = biological target: T2, WT SufS; remark: listed apart in the source
R56A SufS [8] = biological target: T3, R56A SufS; remark: listed apart in the source
R359K SufS [9] = biological target: T4, R359K SufS; remark: listed apart in the source
R56K SufS [10] = biological target: T5, R56K SufS; remark: listed apart in the source

Kd (R359A SufS [1]): 300 ± 100 nM | Kd (WT SufS [2]): 200 ± 100 nM | Kd (R56A SufS [3]): 4000 ± 400 nM | Kd (R359K SufS [4]): 2800 ± 300 nM | Kd (R56K SufS [5]): 2800 ± 300 nM | Kd (R359A SufS [6]): 900 ± 200 nM | Kd (WT SufS [7]): 2500 ± 300 nM | Kd (R56A SufS [8]): 5800 ± 900 nM | Kd (R359K SufS [9]): 4600 ± 500 nM | Kd (R56K SufS [10]): 8500 ± 1100 nM
B1: BODIPY-FL labeled C51A/E107C SufE (natural protein, E. coli, UniProt P76194 1-138, looked up)
chain: MALLPDKEKLLRNFLRCANWEEKYLYIIELGQRLPELRDEDRSPQNSIQGAQSQVWIVMRQNAQGIIELQGDSDAAIVKGLIAVVFILYDQMTPQDIVNFDVRPWFCKMALTQHLTPSRSQGLEAMIRAIRAKAAALS
modifications: BODIPY FL maleimide label (labelling efficiency 60-80%)
